From article PMC10397247

Tests used:
4H570-bN = target: T1, 4H570-bN; experiment: two-hybrid library CCNG1;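 also: natural log of median RNA to DNA barcode read ratio; higher means stronger binding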
T1 chain: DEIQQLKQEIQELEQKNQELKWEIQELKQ

4H3298-bN = target: T2, 4H3298-bN; experiment: two-hybrid library CCNG1;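 also: natural log of median RNA to DNA barcode read ratio; higher means stronger binding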
T2 chain: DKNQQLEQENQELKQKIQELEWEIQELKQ

4H3175-bN = target: T3, 4H3175-bN; experiment: two-hybrid library CCNG1;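 also: natural log of median RNA to DNA barcode read ratio; higher means stronger binding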
T3 chain: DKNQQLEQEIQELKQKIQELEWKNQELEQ

4H850-bN = target: T4, 4H850-bN; experiment: two-hybrid library CCNG1;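 also: natural log of median RNA to DNA barcode read ratio; higher means stronger binding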
T4 chain: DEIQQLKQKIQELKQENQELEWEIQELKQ

4H3628-bN = target: T5, 4H3628-bN; experiment: two-hybrid library CCNG1;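 also: natural log of median RNA to DNA barcode read ratio; higher means stronger binding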
T5 chain: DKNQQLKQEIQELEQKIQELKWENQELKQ

4H3277-bN = target: T6, 4H3277-bN; experiment: two-hybrid library CCNG1;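 also: natural log of median RNA to DNA barcode read ratio; higher means stronger binding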
T6 chain: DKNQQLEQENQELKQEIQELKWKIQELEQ

4H906-bN = target: T7, 4H906-bN; experiment: two-hybrid library CCNG1
T7 chain: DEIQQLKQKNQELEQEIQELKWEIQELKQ

4H1710-bN = target: T8, 4H1710-bN; experiment: two-hybrid library CCNG1
T8 chain: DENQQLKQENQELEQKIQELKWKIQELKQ

4H1348-bN = target: T9, 4H1348-bN; experiment: two-hybrid library CCNG1
T9 chain: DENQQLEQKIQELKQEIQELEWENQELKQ

4H3974-bN = target: T10, 4H3974-bN; experiment: two-hybrid library CCNG1
T10 chain: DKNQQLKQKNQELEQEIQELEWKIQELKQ

4H3926-bN = target: T11, 4H3926-bN; experiment: two-hybrid library CCNG1
T11 chain: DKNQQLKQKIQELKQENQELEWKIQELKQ

4H3817-bN = target: T12, 4H3817-bN; experiment: two-hybrid library CCNG1
T12 chain: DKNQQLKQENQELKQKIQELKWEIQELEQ

4H626-bN = target: T13, 4H626-bN; experiment: two-hybrid library CCNG1
T13 chain: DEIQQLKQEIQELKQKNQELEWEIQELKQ

4H3462-bN = target: T14, 4H3462-bN; experiment: two-hybrid library CCNG1
T14 chain: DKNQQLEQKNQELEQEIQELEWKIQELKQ

4H1544-bN = target: T15, 4H1544-bN; experiment: two-hybrid library CCNG1
T15 chain: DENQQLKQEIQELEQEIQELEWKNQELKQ

P6bH1 = target: T16, P6bH1; experiment: two-hybrid library CCNG1
T16 chain: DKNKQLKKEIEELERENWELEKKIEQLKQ

4H3162-bN = target: T17, 4H3162-bN; experiment: two-hybrid library CCNG1
T17 chain: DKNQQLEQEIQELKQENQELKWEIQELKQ

4H1899-bN = target: T18, 4H1899-bN; experiment: two-hybrid library CCNG1
T18 chain: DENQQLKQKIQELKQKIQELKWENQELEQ

4H3858-bN = target: T19, 4H3858-bN; experiment: two-hybrid library CCNG1
T19 chain: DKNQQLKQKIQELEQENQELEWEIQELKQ

4H3613-bN = target: T20, 4H3613-bN; experiment: two-hybrid library CCNG1
T20 chain: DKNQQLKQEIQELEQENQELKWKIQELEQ

4H3497-bN = target: T21, 4H3497-bN; experiment: two-hybrid library CCNG1
T21 chain: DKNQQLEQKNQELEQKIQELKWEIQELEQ

4H1985-bN = target: T22, 4H1985-bN; experiment: two-hybrid library CCNG1
T22 chain: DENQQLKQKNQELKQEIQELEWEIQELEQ

4H1449-bN = target: T23, 4H1449-bN; experiment: two-hybrid library CCNG1
T23 chain: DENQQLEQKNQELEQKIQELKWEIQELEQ

4H1373-bN = target: T24, 4H1373-bN; experiment: two-hybrid library CCNG1
T24 chain: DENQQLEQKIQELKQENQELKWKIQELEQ

4H591-bN = target: T25, 4H591-bN; experiment: two-hybrid library CCNG1
T25 chain: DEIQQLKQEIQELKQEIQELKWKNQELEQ

4H2513-AA = target: T26, 4H2513-AA; experiment: two-hybrid library CCmax; conditions: mean of both orientations
T26 chain: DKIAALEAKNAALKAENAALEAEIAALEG

4H3922-AA = target: T27, 4H3922-AA; experiment: two-hybrid library CCmax; conditions: mean of both orientations
T27 chain: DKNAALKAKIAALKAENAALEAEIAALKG

4H2608-AA = target: T28, 4H2608-AA; experiment: two-hybrid library CCmax; conditions: mean of both orientations
T28 chain: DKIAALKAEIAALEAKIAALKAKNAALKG

4H341-AA = target: T29, 4H341-AA; experiment: two-hybrid library CCmax
T29 chain: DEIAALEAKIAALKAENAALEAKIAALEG

4H2211-AA = target: T30, 4H2211-AA; experiment: two-hybrid library CCmax; conditions: mean of both orientations
T30 chain: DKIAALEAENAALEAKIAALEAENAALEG

4H1350-AA = target: T31, 4H1350-AA; experiment: two-hybrid library CCmax; conditions: mean of both orientations
T31 chain: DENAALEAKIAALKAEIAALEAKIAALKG

4H662-AA = target: T32, 4H662-AA; experiment: two-hybrid library CCmax; conditions: mean of both orientations
T32 chain: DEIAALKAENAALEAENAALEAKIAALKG

4H2726-AA = target: T33, 4H2726-AA; experiment: two-hybrid library CCmax; conditions: mean of both orientations
T33 chain: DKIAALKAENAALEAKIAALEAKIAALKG

4H2614-AA = target: T34, 4H2614-AA; experiment: two-hybrid library CCmax; conditions: mean of both orientations
T34 chain: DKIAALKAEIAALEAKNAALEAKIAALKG

4H327-AA = target: T35, 4H327-AA; experiment: two-hybrid library CCmax; conditions: mean of both orientations
T35 chain: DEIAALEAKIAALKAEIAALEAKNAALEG

4H3605-AA = target: T36, 4H3605-AA; experiment: two-hybrid library CCmax; conditions: mean of both orientations
T36 chain: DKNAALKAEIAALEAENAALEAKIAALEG

4H3625-AA = target: T37, 4H3625-AA; experiment: two-hybrid library CCmax; conditions: mean of both orientations
T37 chain: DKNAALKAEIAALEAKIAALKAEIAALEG

4H3664-AA = target: T38, 4H3664-AA; experiment: two-hybrid library CCmax; conditions: mean of both orientations
T38 chain: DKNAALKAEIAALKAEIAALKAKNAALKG

4H1405-AA = target: T39, 4H1405-AA; experiment: two-hybrid library CCmax; conditions: mean of both orientations
T39 chain: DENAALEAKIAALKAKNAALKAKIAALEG

4H2238-AA = target: T40, 4H2238-AA; experiment: two-hybrid library CCmax; conditions: mean of both orientations
T40 chain: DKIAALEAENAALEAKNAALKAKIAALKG

4H55-AA = target: T41, 4H55-AA; experiment: two-hybrid library CCmax; conditions: mean of both orientations
T41 chain: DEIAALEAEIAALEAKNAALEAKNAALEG

4H1198-AA = target: T42, 4H1198-AA; experiment: two-hybrid library CCmax
T42 chain: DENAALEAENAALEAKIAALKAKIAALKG

4H2536-AA = target: T43, 4H2536-AA; experiment: two-hybrid library CCmax; conditions: mean of both orientations
T43 chain: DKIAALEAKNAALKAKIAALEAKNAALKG

4H481-AA = target: T44, 4H481-AA; experiment: two-hybrid library CCmax; conditions: mean of both orientations
T44 chain: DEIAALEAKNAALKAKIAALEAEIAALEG

4H2935-AA = target: T45, 4H2935-AA; experiment: two-hybrid library CCmax; conditions: mean of both orientations
T45 chain: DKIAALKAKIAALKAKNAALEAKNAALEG

4H369-AA = target: T46, 4H369-AA; experiment: two-hybrid library CCmax
T46 chain: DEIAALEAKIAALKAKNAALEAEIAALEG

4H4033-AA = target: T47, 4H4033-AA; experiment: two-hybrid library CCmax; conditions: mean of both orientations
T47 chain: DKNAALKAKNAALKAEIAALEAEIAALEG

B1: 4H1348-bN (peptide)
chain: DENQQLEQKIQELKQEIQELEWENQELKQ
4H570-bN
  interaction score: 0.123
4H3298-bN
  interaction score: 0.08
4H3175-bN
  interaction score: -0.302
4H850-bN
  interaction score: 0.761
4H3628-bN
  interaction score: -0.12
4H3277-bN
  interaction score: -0.122
4H906-bN
  interaction score: -0.116
4H1710-bN
  interaction score: -1.09
4H1348-bN
  interaction score: -1.55
4H3974-bN
  interaction score: 0.224
4H3926-bN
  interaction score: -0.478
4H3817-bN
  interaction score: -0.958
4H626-bN
  interaction score: -0.135
4H3462-bN
  interaction score: -0.171
4H1544-bN
  interaction score: -1.46
P6bH1
  interaction score: -0.556
4H3162-bN
  interaction score: -0.0481
4H1899-bN
  interaction score: -0.707
4H3858-bN
  interaction score: -0.748
4H3613-bN
  interaction score: -0.0173
4H3497-bN
  interaction score: -0.431
4H1985-bN
  interaction score: -0.781
4H1449-bN
  interaction score: -0.5
4H1373-bN
  interaction score: -0.955
4H591-bN
  interaction score: -1.4

B2: 4H1198-AA (peptide)
chain: DENAALEAENAALEAKIAALKAKIAALKG
4H2513-AA
  interaction score: 1.14
4H3922-AA
  interaction score: 0.661
4H2608-AA
  interaction score: 0.869
4H341-AA
  interaction score: -2.13
4H2211-AA
  interaction score: -1.3
4H1350-AA
  interaction score: 0.496
4H662-AA
  interaction score: -1.15
4H2726-AA
  interaction score: -0.438
4H2614-AA
  interaction score: -0.463
4H327-AA
  interaction score: -0.574
4H3605-AA
  interaction score: 0.0472
4H3625-AA
  interaction score: -0.0176
4H3664-AA
  interaction score: 1.22
4H1405-AA
  interaction score: -0.758
4H2238-AA
  interaction score: -0.785
4H55-AA
  interaction score: -0.467
4H1198-AA
  interaction score: -0.611
4H2536-AA
  interaction score: -0.886
4H481-AA
  interaction score: 1.9
4H2935-AA
  interaction score: -1.5
4H369-AA
  interaction score: -1.45
4H4033-AA
  interaction score: 2.18
